In the test the target is Hyper-IL-6 (designer cytokine consisting of covalently linked IL-6 and sIL-6R) (human, UniProt P08887 20-323; P05231 30-212). The experiment in a line: SPR. (In SPR one partner is held on a chip, and binding of the other changes the refractive index at the surface.)

The results in this text go back to US8501696 (dated 2013).

Hyper-IL-6 (designer cytokine consisting of covalently linked IL-6 and sIL-6R), sequence (P08887 20-323, chain 1 of 2): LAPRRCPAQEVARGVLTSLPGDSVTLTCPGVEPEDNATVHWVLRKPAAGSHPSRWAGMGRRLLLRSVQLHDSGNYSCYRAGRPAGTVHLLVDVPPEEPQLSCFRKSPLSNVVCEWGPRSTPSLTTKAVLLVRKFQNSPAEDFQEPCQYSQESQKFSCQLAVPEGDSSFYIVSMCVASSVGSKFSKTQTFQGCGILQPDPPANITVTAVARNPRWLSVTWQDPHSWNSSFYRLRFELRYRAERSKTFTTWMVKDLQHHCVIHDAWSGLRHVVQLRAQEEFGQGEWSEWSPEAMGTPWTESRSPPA
Hyper-IL-6 (designer cytokine consisting of covalently linked IL-6 and sIL-6R), sequence (P05231 30-212, chain 2 of 2): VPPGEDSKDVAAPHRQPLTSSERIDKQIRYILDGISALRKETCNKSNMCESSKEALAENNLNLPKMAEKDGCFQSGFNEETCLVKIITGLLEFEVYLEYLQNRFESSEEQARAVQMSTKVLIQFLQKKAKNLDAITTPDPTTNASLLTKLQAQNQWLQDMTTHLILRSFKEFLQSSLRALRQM

B1: wild type sgp130Fc (Fc fusion)
chain: ELLDPCGYISPESPVVQLHSNFTAVCVLKEKCMDYFHVNANYIVWKTNHFTIPKEQYTIINRTASSVTFTDIASLNIQLTCNILTFGQLEQNVYGITIISGLPPEKPKNLSCIVNEGKKMRCEWDGGRETHLETNFTLKSEWATHKFADCKAKRDTPTSCTVDYSTVYFVNIEVWVEAENALGKVTSDHINFDPVYKVKPNPPHNLSVINSEELSSILKLTWTNPSIKSVIILKYNIQYRTKDASTWSQIPPEDTASTRSSFTVQDLKPFTEYVFRIRCMKEDGKGYWSDWSEEASGITYEDRPSKAPSFWYKIDPSHTQGYRTVQLVWKTLPPFEANGKILDYEVTLTRWKSHLQNYTVNATKLTVNLTNDRYLATLTVRNLVGKSDAAVLTIPACDFQATHPVMDLKAFPKDNMLWVEWTTPRESVKKYILEWCVLSDKAPCITDWQQEDGTVHRTYLRGNLAESKCYLITVTPVYADGPGSPESIKAYLKQAPPSKGPTVRTKKVGKNEAVLEWDQLPVDVQNGFIRNYTIFYRTIIGNETAVNVDSSHTEYTLSSLTSDTLYMVRMAAYTDEGGKDGPEFTFTTPKFAQGEIE
A word on the Kd: it is a measure of binding affinity in units of concentration. Low values mean a tighter complex, high ones a looser complex. Molecule B1 displayed a Kd of 499 pM.
